How the values were obtained:
Test in all cases: cell-based or functional assay
[1] = biological target: T1, Human neutrophil elastase (HNE) (human, UniProt P08246 30-267)
T1 sequence (looked up): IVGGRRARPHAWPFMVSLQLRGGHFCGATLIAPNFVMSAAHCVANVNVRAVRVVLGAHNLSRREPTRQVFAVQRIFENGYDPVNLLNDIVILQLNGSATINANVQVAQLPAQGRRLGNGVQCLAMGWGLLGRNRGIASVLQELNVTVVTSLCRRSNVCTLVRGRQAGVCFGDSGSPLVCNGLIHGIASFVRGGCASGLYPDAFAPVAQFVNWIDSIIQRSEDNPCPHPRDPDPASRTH

[2] = biological target: Bovine pancreatic α-chymotrypsin (bovine)
[3] = biological target: T2, Thermolysin from Geobacillus stearothermophilus (Geobacillus stearothermophilus, UniProt P00800 233-548)
T2 sequence (looked up): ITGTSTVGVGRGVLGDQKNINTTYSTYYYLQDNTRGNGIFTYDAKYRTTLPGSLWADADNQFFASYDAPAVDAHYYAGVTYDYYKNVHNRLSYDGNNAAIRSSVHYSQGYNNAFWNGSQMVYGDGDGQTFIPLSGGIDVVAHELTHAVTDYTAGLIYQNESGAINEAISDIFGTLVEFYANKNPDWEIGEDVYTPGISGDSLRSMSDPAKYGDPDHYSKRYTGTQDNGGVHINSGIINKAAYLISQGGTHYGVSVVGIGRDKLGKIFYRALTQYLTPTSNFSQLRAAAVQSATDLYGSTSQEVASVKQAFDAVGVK

B1: Human alpha-2 macroglobulin-like 1 (A2ML1), recombinant wild type, native (natural protein, UniProt A8K2U0 18-1454, looked up)
chain: EELPNYLVTLPARLNFPSVQKVCLDLSPGYSDVKFTVTLETKDKTQKLLEYSGLKKRHLHCISFLVPPPAGGTEEVATIRVSGVGNNISFEEKKKVLIQRQGNGTFVQTDKPLYTPGQQVYFRIVTMDSNFVPVNDKYSMVELQDPNSNRIAQWLEVVPEQGIVDLSFQLAPEAMLGTYTVAVAEGKTFGTFSVEEYVLPKFKVEVVEPKELSTVQESFLVKICCRYTYGKPMLGAVQVSVCQKANTYWYREVEREQLPDKCRNLSGQTDKTGCFSAPVDMATFDLIGYAYSHQINIVATVVEEGTGVEANATQNIYISPQMGSMTFEDTSNFYHPNFPFSGKIRVRGHDDSFLKNHLVFLVIYGTNGTFNQTLVTDNNGLAPFTLETSGWNGTDVSLEGKFQMEDLVYNPEQVPRYYQNAYLHLRPFYSTTRSFLGIHRLNGPLKCGQPQEVLVDYYIDPADASPDQEISFSYYLIGKGSLVMEGQKHLNSKKKGLKASFSLSLTFTSRLAPDPSLVIYAIFPSGGVVADKIQFSVEMCFDNQVSLGFSPSQQLPGAEVELQLQAAPGSLCALRAVDESVLLLRPDRELSNRSVYGMFPFWYGHYPYQVAEYDQCPVSGPWDFPQPLIDPMPQGHSSQRSIIWRPSFSEGTDLFSFFRDVGLKILSNAKIKKPVDCSHRSPEYSTAMGAGGGHPEAFESSTPLHQAEDSQVRQYFPETWLWDLFPIGNSGKEAVHVTVPDAITEWKAMSFCTSQSRGFGLSPTVGLTAFKPFFVDLTLPYSVVRGESFRLTATIFNYLKDCIRVQTDLAKSHEYQLESWADSQTSSCLCADDAKTHHWNITAVKLGHINFTISTKILDSNEPCGGQKGFVPQKGRSDTLIKPVLVKPEGVLVEKTHSSLLCPKGKVASESVSLELPVDIVPDSTKAYVTVLGDIMGTALQNLDGLVQMPSGCGEQNMVLFAPIIYVLQYLEKAGLLTEEIRSRAVGFLEIGYQKELMYKHSNGSYSAFGERDGNGNTWLTAFVTKCFGQAQKFIFIDPKNIQDALKWMAGNQLPSGCYANVGNLLHTAMKGGVDDEVSLTAYVTAALLEMGKDVDDPMVSQGLRCLKNSATSTTNLYTQALLAYIFSLAGEMDIRNILLKQLDQQAIISGESIYWSQKPTPSSNASPWSEPAAVDVELTAYALLAQLTKPSLTQKEIAKATSIVAWLAKQHNAYGGFSSTQDTVVALQALAKYATTAYMPSEEINLVVKSTENFQRTFNIQSVNRLVFQQDTLPNVPGMYTLEASGQGCVYVQTVLRYNILPPTNMKTFSLSVEIGKARCEQPTSPRSLTLTIHTSYVGSRSSSNMAIVEVKMLSGFSPMEGTNQLLLQQPLVKKVEFGTDTLNIYLDELIKNTQTYTFTISQSVLVTNLKPATIKVYDYYLPDEQATIQYSDPCE
modifications: internal thioester Cys970-Gln973; N-glycans (Asn120, Asn328, Asn857 named)
inhibition of β-casein-cleaving activity at a 4:1 A2ML1:protease molar ratio [1]: ~10 % inhibited
inhibition of β-casein-cleaving activity at a 4:1 A2ML1:protease molar ratio [2]: ~65 % inhibited
inhibition of thermolysin's β-casein-cleaving activity, A2ML1:thermolysin molar ratios up to 4:1, without BAPN [3]: ~95 % inhibited
